Test results as given in the supplement of paper PMC10567573.
± gives the standard deviation.

Experiment: protein stability index of a GFP-peptide fusion (GPS, HEK-293T) (PSI 1-6); higher = more stable
[1] = treatment: DMSO, c terminus: a fixed tail appended
[2] = treatment: MLN4924 1 uM, 8 h, c terminus: a fixed tail appended
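Also: 24-mer peptide tiles fused after GFP, lentivirally expressed, FACS-sorted into six equal bins by GFP/DsRed ratio, decoded by Illumina sequencing, PSI is the read-weighted mean bin number.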

Row | Sequence | protein stability index [1] | protein stability index [2] | protein stability index (treatment: DMSO, c terminus: native) | protein stability index (treatment: MLN4924 1 uM, 8 h, c terminus: native)
1 | ILVLTRPVTRNERHSYQVYRQPIP [NET1] | 2.33 ± 0.51 | 2.11 ± 0.38 |  | 
2 | LEQASSHIGNSTQATVRDAVVGRP [ATL3] | 5.03 ± 0.26 | 5.03 ± 0.35 |  | 
3 | NSAAHLFGYRPYDKNISPRENILV [SCD] | 2.22 ± 0.38 | 2.57 ± 0.26 |  | 
4 | CSRTTGYQILTLEKDQEQVVMNLD [GMCL1] | 3.6 ± 0.52 | 3.43 ± 0.34 |  | 
5 | GGQRSTPLIIAARNGHAKVVRLLL [FEM1B] | 2.16 ± 0.2 | 2.23 ± 0.44 |  | 
6 | NFCEPQDYRPMNHEAFKDELKTFR [CDC25B] | 4.04 ± 0.085 | 4.15 ± 0.25 |  | 
7 | RSHENKLRQLTAELAEHRCHPVER [PSD2] | 3.84 ± 0.18 | 4.02 ± 0.14 |  | 
8 | SGSGGTVAPATMGSARSHASSRAS [ZBTB22] | 4.77 ± 0.18 | 4.68 ± 0.24 |  | 
9 | VYHIECFRCSVCSRQLLPGDEFSL [ISL2] | 2.34 ± 0.14 | 2.4 ± 0.23 |  | 
10 | CTDKENALKLFPVQPCSAVHLLLK [FAM189A2] | 2.58 ± 0.23 | 2.7 ± 0.43 |  | 
11 | HAPGVPKILVGNRLHLAFKRQVPR [RAB40A] | 2.58 ± 0.28 | 2.88 ± 0.31 |  | 
12 | DKERFTTLVQDLANAFQQEAQTSG [CHIT1] | 4.19 ± 0.066 | 4.26 ± 0.12 |  | 
13 | KVTRLKSLALDIDRDAEDQNRYLD [BET1L] | 4.44 ± 0.17 | 4.6 ± 0.18 |  | 
14 | KDAPCYESDTDIYETVAAATSEST [DRICH1] | 5.4 ± 0.15 | 5.38 ± 0.1 |  | 
15 | VTDKTLLICKYDFIMLSCVQLQRI [TPRG1] | 3.35 ± 0.84 | 3.48 ± 0.72 |  | 
16 | GTEQSRGLGHGSTSRGGPWVGTGL [CPOX] | 3.27 ± 0.84 | 3.6 ± 0.26 |  | 
17 | FIAVTSYQNHKITQLKIENNPFAK [TBX5] | 2.12 ± 0.28 | 2.27 ± 0.53 |  | 
18 | SELERESKVVVPPLPGKAFLRQLP [SNX3] | 3.67 ± 0.18 | 3.86 ± 0.59 |  | 
19 | EDLATAYNNRGQIKYFRVDFYEAM [TTC32] | 2.21 ± 0.17 | 2.23 ± 0.32 |  | 
20 | KKKCLEWLLNNLMTHQNVELFKEL [GMCL1] | 2.54 ± 0.17 | 2.83 ± 0.78 |  | 
21 | AGAGGSGSRISVSRSTSFRGGMGS [KRT18] | 3.88 ± 0.21 | 3.79 ± 0.28 |  | 
22 | GLDYLHSKCKIIHTDIKPENILMC [SRPK2] | 2.06 ± 0.22 | 1.9 ± 0.35 |  | 

Row | Sequence | protein stability index [1] | protein stability index [2] | protein stability index (treatment: DMSO, c terminus: native) | protein stability index (treatment: MLN4924 1 uM, 8 h, c terminus: native)
23 | SLDESVIYGPGNLSTNNNTLRDHF [SLC2A12] | 3.63 ± 0.31 | 3.6 ± 0.27 |  | 
24 | YVIVSGAQRKEERWDMADNEQVLT [YJU2B] | 2.88 ± 0.37 | 3.19 ± 0.24 |  | 
25 | ADWWQEPDAKGDEAEAEPEPELA [P3H4] |  |  | 5.67 ± 0.21 | 5.42 ± 0.31
26 | ERETEATRGRGGLLRDHIPRGKEE [MOG] | 5.38 ± 0.38 | 5.18 ± 0.41 |  | 
27 | ESTIVELGSIFQQLAHMVKEQEET [STX5] | 2.4 ± 0.7 | 3.25 ± 0.094 |  | 
28 | NVKTLKDGKPFPELVLEQQLDREA [PCDHGC5] | 5.07 ± 0.33 | 5.02 ± 0.13 |  | 
29 | DMEKILEIIRVILKLYEQWKNFDE [CCNC] | 2.47 ± 0.2 | 2.66 ± 0.42 |  | 
30 | LVITDFFGHLINGAIAVFVYASDK [PTGFR] | 3.39 ± 0.23 | 3.56 ± 0.49 |  | 
31 | TCKASHITSSVFPSASLGKASSRK [FBXO34] | 3.62 ± 0.28 | 3.55 ± 0.2 |  | 
32 | YVFFEKDFGDMHSYVRSRKRLREE [TRIB1] | 2.46 ± 0.59 | 2.66 ± 0.93 |  | 
33 | DQAGGEGKHITVFKTYISPWERAM [MYOZ1] | 2.91 ± 0.27 | 2.84 ± 0.39 |  | 
34 | AFTMEQVRTLEGVFQHHQYLSPLE [VENTX] | 2.83 ± 0.16 | 2.28 ± 0.23 |  | 
35 | DNEGNSALHIIVQYNRPISDFLTL [FEM1B] | 3.06 ± 0.9 | 2.33 ± 0.17 |  | 
36 | TITSEVIEKCTTPLSDDHDEKYGV [CRY1] | 5.21 ± 0.12 | 4.99 ± 0.22 |  | 
37 | ERDTLSIRESRLFGAVVRWAEAEC [BTBD1] | 3.13 ± 0.21 | 3.12 ± 0.34 |  | 
38 | FRVVDCDQFTQVFLESQGIELNPP [EFHC1] | 2.01 ± 0.14 | 2.27 ± 0.17 |  | 
39 | SVDEQNALREVYAHAVLGQHSHVV [WEE1] | 3.42 ± 0.14 | 3.47 ± 0.33 |  | 
40 | GGTGSGDGNKIFLCHCGKAFSHKS [ZBTB22] | 2.27 ± 0.38 | 2.58 ± 0.41 |  | 
41 | GVSEILLKTQMKMSLKCLAARAVR [FEM1B] | 2.65 ± 0.56 | 2.58 ± 0.26 |  | 
42 | AGLCMDSPSPMDPHMAEQTFEQAI [CDC25B] | 4.5 ± 0.47 | 4.6 ± 0.15 |  | 
43 | ESQLDPSNCLGIRDFAETHNCVDL [KLHL12] | 3.9 ± 0.45 | 4.26 ± 0.49 |  | 
44 | QRYILYWRKRFTEQPITDFCSVIR [ZNF277] | 1.93 ± 0.23 | 2.24 ± 0.26 |  | 

Row | Sequence | protein stability index [1] | protein stability index [2] | protein stability index (treatment: DMSO, c terminus: native) | protein stability index (treatment: MLN4924 1 uM, 8 h, c terminus: native)
45 | SAETGSPRLTMHYPCLEKPRIWSL [IRX6] | 2.4 ± 0.1 | 2.22 ± 0.43 |  | 
46 | IRLKESINCQLSDPSSTKPGTLLK [TRIM14] | 3.28 ± 0.3 | 3.48 ± 0.33 |  | 
47 | LSPALDLQAESPPVDPDSQADTVH [DNAAF3] | 5.48 ± 0.41 | 5.46 ± 0.21 |  | 
48 | QNCTDEGEREAIQKSVTRSCLLEE [POP5] | 5.17 ± 0.3 | 5.3 ± 0.33 |  | 
49 | ELVKSGVLGADGVCMTFMKQIAGG [INTS3] | 2.27 ± 0.52 | 2.49 ± 0.068 |  | 
50 | DPERRPSAMALVKHSVLLSASRKS [WEE1] | 4.15 ± 0.3 | 4.05 ± 0.36 |  | 
51 | PYIQLPSHSNITGIVEVILGETKA [TRIB1] | 2.63 ± 0.48 | 2.67 ± 0.52 |  | 
52 | ANGSEIHKHVHFSSSFTSIASEWF [SLC22A15] | 2.44 ± 0.32 | 2.39 ± 0.36 |  | 
53 | GIIPYAGIDLAVYETLKNAWLQHY [SLC25A25] | 2.6 ± 0.48 | 2.65 ± 0.67 |  | 
54 | SRRIYRCRNCINLQNEAQKRESFL [IQUB] | 2.17 ± 0.42 | 2.24 ± 0.2 |  | 
55 | EKLKEKLKMKEREEAWVKIENLAK [PPP2R5C] | 2.54 ± 0.6 | 2.48 ± 0.39 |  | 
56 | EVGPQEINKEELEGNSMRCGRKLA [GMCL1] | 4.75 ± 0.48 | 4.76 ± 0.3 |  | 
57 | DSVLERWVNDPQRMDKRTLALLVL [GOLPH3L] | 2.21 ± 0.28 | 2.31 ± 0.28 |  | 
58 | HDGKPSEGSYRIHVLHHGTGKWYE [USP39] | 2.71 ± 0.2 | 2.88 ± 0.16 |  | 
59 | NYIGTKNVIETCKEAGVQKLILTS [NSDHL] | 2.5 ± 0.23 | 2.84 ± 0.44 |  | 
60 | LPPSPRFLVMKGQEGAASKVLGRL [SLC2A12] | 3.34 ± 0.28 | 3.48 ± 0.83 |  | 
61 | TEVVRDAVRKLKFARHIKKSEGQK [GULP1] | 3.65 ± 0.37 | 3.85 ± 0.29 |  | 
62 | DLFKSFPGPMDWVPRYTGVAPQDQ [ADAMTS4] | 3.19 ± 0.29 | 3.21 ± 0.2 |  | 
63 | GKTTIILRCLDRDEPSKPTLALEY [DYNC2LI1] | 2.25 ± 0.37 | 2.05 ± 0.29 |  | 
64 | PQTPAAPPATLGEGSADTEDRKLP [EHMT1] | 5.44 ± 0.28 | 5.36 ± 0.35 |  | 
65 | TWGQIKKTTQEAEKLLERQGQAKT [CDK11A] | 4.98 ± 0.11 | 5.01 ± 0.072 |  | 
